Experimental findings from the Immune Epitope Database (IEDB) are described below.

The target of assay [1] is HLA-A*31:01. Put plainly: IEDB peptide-MHC binding, purified MHC/direct/fluorescence; filed as Kd, often an IC50 or EC50 that approximates it; ≥ and ≤ were set here for values at or beyond the usual limits of such assays.
The target in assay [2] is HLA-A*69:01. Described as above.
The target in assay [3] is HLA-B*15:01. Described as above.
Assay [4] deals with HLA-B*44:02. The description is as above.
Assay [5] concerns the target HLA-B*07:02. The description is as above.
The target of assay [6] is HLA-B*08:01. The description is as above.
The target of assay [7] is HLA-B*58:01. Described as above.
The target of assay [8] is HLA-A*01:01. Described as above.
In assay [9] the target is HLA-A*02:01. The description is as above.
The target of assay [10] is HLA-B*40:01. The assay is described as above.
For assay [11], the target named is HLA-A*11:01. Described as above.
Assay [12] has as its target HLA-A*03:01. Described as above.
Assay [13] has as its target HLA-B*27:05. The assay is described as above.
The target in assay [14] is HLA-A*26:01. The description is as above.
The target in assay [15] is HLA-B*44:03. The assay can be described thus: IEDB peptide-MHC binding, purified MHC/competitive/radioactivity; filed as Kd, often an IC50 or EC50 that approximates it; ≥ and ≤ were set here for values at or beyond the usual limits of such assays.
The target in assay [16] is HLA-B*40:01. The assay is described as above.
Assay [17] addresses HLA-B*51:01. The description is as above.
Assay [18] has as its target HLA-B*07:02. The assay is described as above.
For assay [19], the target named is HLA-A*24:03. Put plainly: IEDB peptide-MHC binding, purified MHC/direct/fluorescence; filed as Kd, often an IC50 or EC50 that approximates it; ≥ and ≤ were set here for values at or beyond the usual limits of such assays.
Assay [20] concerns the target HLA-B*44:02. The assay can be described thus: IEDB peptide-MHC binding, purified MHC/competitive/radioactivity; filed as Kd, often an IC50 or EC50 that approximates it; ≥ and ≤ were set here for values at or beyond the usual limits of such assays.
The target in assay [21] is HLA-B*35:01. Described as above.
Assay [22] concerns the target HLA-B*46:01. Put plainly: IEDB peptide-MHC binding, purified MHC/competitive/fluorescence; filed as Kd, often an IC50 or EC50 that approximates it; ≥ and ≤ were set here for values at or beyond the usual limits of such assays. The conditions noted are these: source organism: Entamoeba histolytica HM-1:IMSS.
Assay [23] has as its target HLA-A*32:01. The assay can be described thus: IEDB peptide-MHC binding, purified MHC/competitive/radioactivity; filed as Kd, often an IC50 or EC50 that approximates it; ≥ and ≤ were set here for values at or beyond the usual limits of such assays. Conditions: source organism: Dengue virus 3 Martinique/1243/1999.
Assay [24] deals with HLA-A*30:02. Described as above.
Assay [25] has as its target HLA-B*08:01. Described as above. The conditions noted are these: source organism: Dengue virus 3 Martinique/1243/1999.
Assay [26] deals with HLA-B*15:01. Put plainly: IEDB peptide-MHC binding, purified MHC/competitive/fluorescence; ≥ and ≤ were set here for values at or beyond the usual limits of such assays.
Assay [27] concerns the target HLA-B*15:01. Put plainly: IEDB peptide-MHC binding, purified MHC/competitive/fluorescence; filed as Kd, often an IC50 or EC50 that approximates it; ≥ and ≤ were set here for values at or beyond the usual limits of such assays. Conditions: source organism: Escherichia coli.
Assay [28] concerns the target HLA-B*39:01. Described as above. Conditions: source organism: Escherichia coli.
The mark [29] stands for this setting: source organism: Vibrio cholerae.
[30] abbreviates: source organism: Dengue virus 4 Philippines/H241/1956.
The mark [31] stands for this setting: source organism: Dengue virus 3 Martinique/1243/1999.
Where [32] appears, read: source organism: Pseudomonas aeruginosa UCBPP-PA14.
Where [33] appears, read: source organism: Shigella flexneri.
The mark [34] stands for this setting: source organism: Dengue virus 2 Jamaica/1409/1983.
Where [35] appears, read: source organism: Dengue virus 1 Brazil/97-11/1997.
The mark [36] stands for this setting: source organism: Dengue virus 3 Sri Lanka/1266/2000.
Where [37] appears, read: source organism: Dengue virus 3 Singapore/8120/1995.
[38] abbreviates: source organism: Vaccinia virus.
Setting [39] is: source organism: Histophilus somni.
Setting [40] is: source organism: Pasteurella multocida.
The mark [41] stands for this setting: source organism: Giardia lamblia ATCC 50803.

The term Kd denotes a measure of binding affinity in units of concentration. For AENKKFKLH, the Kd in [1] (setting [29]), in assay [2] (setting [29]), in assay [3] (setting [29]), in assay [4] (setting [29]), in [5] (setting [29]) and in assay [6] (setting [29]) was at least 20 µM in each case. In addition, the Kd in assay [7] (setting [29]) is at least 20 µM; in assay [8] (setting [29]) it was at least 20 µM; in assay [9] (setting [29]), at least 20 µM; in [10] (setting [29]) it was 2.71 µM; in assay [11] (setting [29]), at least 20 µM; in assay [12] (setting [29]), at least 20 µM. The dissociation constant (Kd) in assay [13] (setting [29]) and in assay [14] (setting [29]) was at least 20 µM throughout.
With AETQHGTTV, the equilibrium dissociation constant (Kd) in assay [15] (setting [30]) was determined as 1.46 µM; in assay [16] (setting [30]), 0.0208 µM.
Regarding APIQDEERDI, the Kd in assay [17] (setting [31]) is at least 69.6 µM; in assay [18] (setting [31]) it was 5.06 µM.
For the sequence ASDDLEHWQ, the Kd in assay [1] (setting [32]), in [2] (setting [32]), in assay [3] (setting [32]), in [19] (setting [32]), in assay [5] (setting [32]) and in assay [6] (setting [32]) was at least 20 µM each time. Further, the equilibrium dissociation constant (Kd) in assay [7] (setting [32]), in [8] (setting [32]), in assay [9] (setting [32]), in assay [10] (setting [32]), in [11] (setting [32]) and in [12] (setting [32]) was at least 20 µM throughout. Moreover, the Kd in assay [13] (setting [32]) and in assay [14] (setting [32]) was at least 20 µM in each case.
As for DRLHPPNKL, the dissociation constant (Kd) in assay [1] (setting [33]), in assay [2] (setting [33]), in assay [3] (setting [33]), in assay [4] (setting [33]), in assay [5] (setting [33]) and in assay [6] (setting [33]) was at least 20 µM in each case. In addition, the Kd in assay [7] (setting [33]) was at least 20 µM; in [8] (setting [33]), at least 20 µM; in assay [9] (setting [33]), at least 20 µM; in assay [10] (setting [33]), 4.25 µM; in assay [11] (setting [33]), at least 20 µM; in assay [12] (setting [33]) it was at least 20 µM. For the same sequence, the Kd in assay [13] (setting [33]) and in assay [14] (setting [33]) was at least 20 µM in each case.
With FEKQLGQVM, the Kd in assay [20] (setting [34]) was 0.319 µM; in assay [16] (setting [34]), 0.527 µM.
Consider GPTPELEEEM, for which the equilibrium dissociation constant (Kd) in [21] (setting [31]) turned out to be 4.17 µM.
IAKGIDAEF showed a Kd in assay [22] of 0.168 µM.
For the sequence IPEPDRQRTP, the Kd in assay [21] (setting [35]) was 0.0231 µM.
Regarding IPLQWIASAI, the dissociation constant Kd in assay [17] (setting [31]) amounted to 0.00748 µM.
With KEISNMLSI, the dissociation constant (Kd) in [20] (setting [31]) worked out at 0.0282 µM; in [15] (setting [31]), 0.0218 µM; in [16] (setting [31]) it was 0.00644 µM; in assay [23] it was 6.37 µM.
Turning to KPWDVIPMV, the dissociation constant Kd in [17] (setting [35]) was 1.11 µM.
As to LAGPISQHNY, the results for the Kd in assay [21] (setting [36]) and in [24] (setting [36]) were 0.187 µM and at least 60.3 µM, respectively.
With LATLRKLCI, the dissociation constant Kd was determined as 2.53 µM in assay [17] (setting [31]) and 0.359 µM in assay [25].
Regarding LAVWNRVWI, in assay [17] (setting [34]), the Kd was 4.95 µM.
LECSPRTGL: the Kd in [16] (setting [31]) worked out at 0.599 µM.
As to LEKASFIEV, the values for the dissociation constant Kd in assay [20] (setting [37]) and in [16] (setting [37]) were 9.57 µM and 1.04 µM, respectively.
As a reminder, the IC50 is the point on the concentration scale where inhibition reaches its midpoint. Lower therefore signals inhibition by little substance. LETDLRSEF: the IC50 in assay [26] (setting [38]) is 47.5 µM. This counts as double-digit micromolar.
LPIRYQTPAV: the values for the Kd in [17] (setting [30]), in assay [18] (setting [30]) and in [21] (setting [30]) were 0.198 µM, 0.0267 µM and 0.11 µM, respectively.
Consider LPLPWTSGA, for which, in assay [17] (setting [35]), the Kd was determined as 0.926 µM.
Turning to MAVLFVVTL, the dissociation constant (Kd) in [21] (setting [30]) is 0.359 µM.
Turning to NPNMIDKTPV, the Kd in [18] (source organism: Dengue virus 4 Thailand/0348/1991) was found to be 0.402 µM.
QQKNSQKGQ registered a half-inhibitory concentration (IC50) in assay [26] (source organism: Zaire ebolavirus) of at least 93.5 µM.
On to QYPAFVLFI, for which the Kd in assay [2] (setting [39]) is at least 20 µM; in assay [3] (setting [39]), at least 20 µM; in assay [19] (setting [40]) it was 0.00192 µM; in [5] (setting [39]), at least 20 µM; in [6] (setting [39]) it was at least 20 µM; in [7] (setting [39]) it was at least 20 µM. For the same sequence, the Kd is at least 20 µM in assay [8] (setting [39]); at least 20 µM in assay [9] (setting [39]); at least 20 µM in assay [10] (setting [39]); 2.82 µM in assay [11] (setting [40]); at least 20 µM in assay [12] (setting [39]); at least 20 µM in assay [13] (setting [39]). In addition, in [14] (setting [39]), the Kd was at least 20 µM.
With RHSDTAKAF, the Kd was at least 20 µM in [27] and 0.268 µM in [28].
Consider RPAKNGTVMD, for which the dissociation constant Kd in assay [18] (setting [35]) was 0.317 µM.
Turning to RPRGHREFC, the Kd in [1] (setting [41]) was at least 20 µM; in assay [2] (setting [41]) it was at least 20 µM; in [3] (setting [41]), at least 20 µM; in [4] (setting [41]), at least 20 µM; in assay [19] (setting [41]), at least 20 µM; in assay [5] (setting [41]), 0.0984 µM. Also, the Kd in assay [6] (setting [41]) was 8.07 µM; in [7] (setting [41]) it was at least 20 µM; in assay [8] (setting [41]), at least 20 µM; in assay [9] (setting [41]), at least 20 µM; in assay [10] (setting [41]), at least 20 µM; in [11] (setting [41]), at least 20 µM. Moreover, the Kd in assay [12] (setting [41]), in [13] (setting [41]) and in assay [14] (setting [41]) was at least 20 µM each time.
For the sequence SETFSMGLL, the dissociation constant Kd in assay [16] (setting [30]) amounted to 0.00353 µM.
For SKNNIGIEY, the concentration for half-maximal inhibition (IC50) in [26] (setting [38]) is at least 87.2 µM.
SLAIDAYPL: the dissociation constant Kd in assay [2] (source organism: SARS-CoV1) is 0.272 µM; in assay [3] (source organism: SARS-CoV1), 1.08 µM; in assay [5] (source organism: SARS-CoV1) it was at least 33.4 µM; in [6] (source organism: SARS-CoV1) it was 9.19 µM; in [9] (source organism: SARS-CoV1), 0.145 µM; in [10] (source organism: SARS-CoV1) it was at least 31.5 µM.
Turning to SPPPVGKAEL, the Kd in assay [18] (setting [34]) was found to be 0.0673 µM.
As for SPTVEESRTI, the dissociation constant Kd in assay [17] (setting [31]) was found to be 3.78 µM.
As for VATTFITPM, the Kd in assay [21] (source organism: Dengue virus 2 Peru/IQT2913/1996) was 0.146 µM.
For VEDSRFWEL, the Kd in assay [16] (setting [34]) was determined as 4.28 µM.
As to WHYDQDHPY, the Kd in [21] (setting [34]) was 7.59 µM; in assay [24] (setting [34]), at least 39.3 µM.
